Key:
Test in all cases: GST pull-down, 35S-Met protein vs GST fusion; - means no detectable binding (footnote a)
[1] = target: T1, GST (glutathione-S transferase alone) (UniProt P08515 1-218 = GST)
T1 construct: Purified GST used as negative control bait on glutathione sepharose beads; also called OST
Experimental: (§1) GST fusion protein pull-down assays were performed as described in J. Parrish, H. Metters, L. Chen, D. Xue, Proc. Natl. Acad. Sci. U.S.A. 97, 11916 (2000). Purified GST or GST-fusion proteins (5 μg each) immobilized on glutathione sepharose beads were incubated with ³⁵S-Methionine labeled proteins at 4° C. for 2 hours. The beads were washed extensively and the bound proteins were resolved on a 12% SDS-PAGE and visualized by autoradiography. [0103] cDNAs corresponding to the ORFs were cloned into the pPD129.36 vector via its Nhe I and Xho I sites or the Xho I site alone. Full-length cDNAs were subcloned into the pGEX4T-2 vector for generating GST fusion proteins and for further protein purification and into the pcDNA3.1 vector for in vitro transcription/translation experiments.
(§2) ^aInteractions were evaluated relative to background binding of ³⁵S-Methionine labeled Luciferase to GST-fusion proteins and ³⁵S-Methionine labeled proteins to GST. “−” indicates no detectable binding, “+” indicates an interaction consistently observed above background levels, and “++” indicates a strong interaction. ^bBecause ³⁵S-Methionine labeled CRN-1 binds GST tightly, it was not possible to evaluate interactions between ³⁵S-CRN-1 and various GST-fusion proteins. ND, not determined.

[2] = target: T2, GST-CRN-5 (C. elegans, UniProt G5EG59 1-214)
T2 construct: also called CRN-5 GST-fusion protein; not shown: GST carrier and the linker of vector pGEX4T-2
T2 sequence: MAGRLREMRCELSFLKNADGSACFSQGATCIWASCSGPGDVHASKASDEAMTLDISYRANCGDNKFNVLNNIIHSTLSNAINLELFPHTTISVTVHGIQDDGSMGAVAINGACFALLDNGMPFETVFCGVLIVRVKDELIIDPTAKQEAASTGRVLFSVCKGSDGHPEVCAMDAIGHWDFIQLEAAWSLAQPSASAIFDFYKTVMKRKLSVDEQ
Experimental: as §1, §2

[3] = target: T3, GST-CRN-6 (C. elegans, UniProt P08515 1-218 = GST; P34508 1-373)
T3 construct: Two crn-6 cDNAs (700 bp and 1.1 kb) were isolated; the longer one made the GST fusion; also called CRN-6 GST-fusion protein
T3 sequence (P08515 1-218, tags or fused parts left off): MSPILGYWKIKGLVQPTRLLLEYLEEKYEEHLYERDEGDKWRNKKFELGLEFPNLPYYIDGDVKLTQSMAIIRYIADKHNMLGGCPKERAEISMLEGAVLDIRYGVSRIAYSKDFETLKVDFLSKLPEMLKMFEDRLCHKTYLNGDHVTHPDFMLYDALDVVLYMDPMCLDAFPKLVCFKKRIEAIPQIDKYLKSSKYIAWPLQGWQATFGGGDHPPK
Experimental: as §1, §2

[4] = target: T4, GST-CRN-3 (C. elegans, UniProt G5EBX6 1-876)
T4 construct: also called CRN-3 GST-fusion protein; not shown: glutathione S-transferase tag encoded by vector pGEX4T-2
T4 sequence: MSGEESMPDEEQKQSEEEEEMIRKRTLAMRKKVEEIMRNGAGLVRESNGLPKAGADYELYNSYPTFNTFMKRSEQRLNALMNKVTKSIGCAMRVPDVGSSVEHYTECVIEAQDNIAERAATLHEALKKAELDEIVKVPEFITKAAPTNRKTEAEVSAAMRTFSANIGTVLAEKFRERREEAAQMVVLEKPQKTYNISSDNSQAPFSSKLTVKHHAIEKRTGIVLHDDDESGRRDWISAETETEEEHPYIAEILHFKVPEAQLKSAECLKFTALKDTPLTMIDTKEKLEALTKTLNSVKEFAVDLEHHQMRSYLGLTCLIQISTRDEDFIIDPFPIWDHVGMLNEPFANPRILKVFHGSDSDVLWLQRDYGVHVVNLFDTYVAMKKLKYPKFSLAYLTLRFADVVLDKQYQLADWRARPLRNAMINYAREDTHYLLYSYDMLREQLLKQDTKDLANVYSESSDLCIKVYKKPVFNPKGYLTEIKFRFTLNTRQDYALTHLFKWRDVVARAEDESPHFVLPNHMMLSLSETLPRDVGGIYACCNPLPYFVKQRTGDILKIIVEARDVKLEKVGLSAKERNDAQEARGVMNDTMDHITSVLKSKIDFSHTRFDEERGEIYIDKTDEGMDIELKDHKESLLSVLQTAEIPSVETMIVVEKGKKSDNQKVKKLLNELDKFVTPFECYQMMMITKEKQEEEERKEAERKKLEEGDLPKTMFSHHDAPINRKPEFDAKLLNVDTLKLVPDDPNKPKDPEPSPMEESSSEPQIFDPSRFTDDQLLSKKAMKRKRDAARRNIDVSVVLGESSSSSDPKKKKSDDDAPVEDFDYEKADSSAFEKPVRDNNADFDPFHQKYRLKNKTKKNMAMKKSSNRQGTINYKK
Experimental: as §1, §2

[5] = target: T5, GST-CPS-6 (C. elegans, UniProt Q95NM6 1-308)
T5 construct: GST at the N-terminus as in pGEX vectors; also called CPS-6 GST-fusion protein; not shown: glutathione S-transferase tag encoded by vector pGEX4T-2
T5 sequence (looked up): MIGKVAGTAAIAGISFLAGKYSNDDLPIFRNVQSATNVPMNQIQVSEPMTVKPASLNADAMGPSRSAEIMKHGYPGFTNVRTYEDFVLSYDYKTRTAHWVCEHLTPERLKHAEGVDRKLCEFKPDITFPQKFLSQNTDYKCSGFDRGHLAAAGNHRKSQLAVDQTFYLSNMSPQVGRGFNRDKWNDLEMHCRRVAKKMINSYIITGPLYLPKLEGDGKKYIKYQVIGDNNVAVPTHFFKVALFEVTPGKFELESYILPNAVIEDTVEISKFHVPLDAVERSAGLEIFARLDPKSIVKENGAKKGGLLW
Experimental: as §1, §2

[6] = target: T6, GST-NUC-1 (C. elegans, UniProt Q17778 22-375)
T6 construct: also called NUC-1 GST-fusion protein; not shown: glutathione S-transferase tag encoded by vector pGEX4T-2
T6 sequence (looked up): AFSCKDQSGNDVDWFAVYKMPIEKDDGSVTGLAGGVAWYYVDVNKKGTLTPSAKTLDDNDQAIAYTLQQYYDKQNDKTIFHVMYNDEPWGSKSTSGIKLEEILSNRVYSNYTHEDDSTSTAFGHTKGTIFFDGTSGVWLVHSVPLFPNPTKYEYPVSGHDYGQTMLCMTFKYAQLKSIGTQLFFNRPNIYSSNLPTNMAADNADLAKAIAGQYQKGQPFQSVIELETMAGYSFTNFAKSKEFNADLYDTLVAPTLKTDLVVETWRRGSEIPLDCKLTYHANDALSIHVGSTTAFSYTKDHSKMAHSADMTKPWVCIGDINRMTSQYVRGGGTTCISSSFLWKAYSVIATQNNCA
Experimental: as §1, §2

T1 sequence (P08515 whole entry): as the sequence (P08515 1-218, tags or fused parts left off) above

binding result [1]: no binding
binding result [2]: no binding
binding result [3]: no binding
binding result [4]: no binding
binding result [5]: no binding
binding result [6]: no binding
B1: ^35S-Methionine labeled CRN-2 (enzyme, C. elegans)
chain: MALYELVDIGANLGHPSYQKDLNDVLDRAKQAGLSKIMVTGTSEKISHECADLVEKYPGFLYFTAGVHPHDAKDWNDGTLEALKKLQENPSCVAVGECGLDFNRNFSPQDVQKEVFAKQVDMAVKLQKPLFIHEREAHEDMVKILTAAGPSLPPAVIHCFTGTVVEAKKYLEMGFYIGLTGFLWKDRSDNGVQAGLRSGEIPIEKLVLETDAPYMYPKINDKKIPKEIKSLITPETEALHNFSSFNRNEPCSLAAVCELVAAFAGRDPKEVAKITTENAKKVYKLE

Source: patent US20050142568A1 (published 2005)
